# According to publication PMC8367650:
# Target: IdeS FabRICATOR enzyme
# Assay: SEC
substance,measurement,value
IdeS FabRICATOR enzyme,stoichiometry N,2
